B1: target 1 MT 5'PFS GUA 3'PFS AAG (mixed)
RNA 1: CACCCGUGCAAAAAUGCAGGGGUCUAAAACUGAGCGGAUAACCUCUCUAUGG
RNA 2: GGGAAUGGAUCCACAUCUACGAAUUCGUACCAUAGAGAGGUUAUCCGCUCAAAGAGAUCGGAAGAGCACACGU
B2: target 1 MT 5'PFS UAU 3'PFS UUA (mixed)
RNA 1: CACCCGUGCAAAAAUGCAGGGGUCUAAAACUGAGCGGAUAACCUCUCUAUGG
RNA 2: GGGAAUGGAUCCACAUCUACGAAUUCUAUCCAUAGAGAGGUUAUCCGCUCAUUAAGAUCGGAAGAGCACACGU
B3: target 1 MT 5'PFS GCG 3'PFS CUC (mixed)
RNA 1: CACCCGUGCAAAAAUGCAGGGGUCUAAAACUGAGCGGAUAACCUCUCUAUGG
RNA 2: GGGAAUGGAUCCACAUCUACGAAUUCGCGCCAUAGAGAGGUUAUCCGCUCACUCAGAUCGGAAGAGCACACGU
B4: target 1 MT 5'PFS ACU 3'PFS UUG (mixed)
RNA 1: CACCCGUGCAAAAAUGCAGGGGUCUAAAACUGAGCGGAUAACCUCUCUAUGG
RNA 2: GGGAAUGGAUCCACAUCUACGAAUUCACUCCAUAGAGAGGUUAUCCGCUCAUUGAGAUCGGAAGAGCACACGU
B5: target 1 MT 5'PFS GUA 3'PFS AAC (mixed)
RNA 1: CACCCGUGCAAAAAUGCAGGGGUCUAAAACUGAGCGGAUAACCUCUCUAUGG
RNA 2: GGGAAUGGAUCCACAUCUACGAAUUCGUACCAUAGAGAGGUUAUCCGCUCAAACAGAUCGGAAGAGCACACGU
B6: target 1 MT 5'PFS ACU 3'PFS UUA (mixed)
RNA 1: CACCCGUGCAAAAAUGCAGGGGUCUAAAACUGAGCGGAUAACCUCUCUAUGG
RNA 2: GGGAAUGGAUCCACAUCUACGAAUUCACUCCAUAGAGAGGUUAUCCGCUCAUUAAGAUCGGAAGAGCACACGU
B7: target 1 MT 5'PFS UAU 3'PFS UUU (mixed)
RNA 1: CACCCGUGCAAAAAUGCAGGGGUCUAAAACUGAGCGGAUAACCUCUCUAUGG
RNA 2: GGGAAUGGAUCCACAUCUACGAAUUCUAUCCAUAGAGAGGUUAUCCGCUCAUUUAGAUCGGAAGAGCACACGU
B8: target 1 MT 5'PFS GCG 3'PFS CUU (mixed)
RNA 1: CACCCGUGCAAAAAUGCAGGGGUCUAAAACUGAGCGGAUAACCUCUCUAUGG
RNA 2: GGGAAUGGAUCCACAUCUACGAAUUCGCGCCAUAGAGAGGUUAUCCGCUCACUUAGAUCGGAAGAGCACACGU
B9: target 1 MT 5'PFS GUA 3'PFS AAU (mixed)
RNA 1: CACCCGUGCAAAAAUGCAGGGGUCUAAAACUGAGCGGAUAACCUCUCUAUGG
RNA 2: GGGAAUGGAUCCACAUCUACGAAUUCGUACCAUAGAGAGGUUAUCCGCUCAAAUAGAUCGGAAGAGCACACGU
B10: target 1 MT 5'PFS GGC 3'PFS GCU (mixed)
RNA 1: CACCCGUGCAAAAAUGCAGGGGUCUAAAACUGAGCGGAUAACCUCUCUAUGG
RNA 2: GGGAAUGGAUCCACAUCUACGAAUUCGGCCCAUAGAGAGGUUAUCCGCUCAGCUAGAUCGGAAGAGCACACGU
B11: target 1 MT 5'PFS AAA 3'PFS UCG (mixed)
RNA 1: CACCCGUGCAAAAAUGCAGGGGUCUAAAACUGAGCGGAUAACCUCUCUAUGG
RNA 2: GGGAAUGGAUCCACAUCUACGAAUUCAAACCAUAGAGAGGUUAUCCGCUCAUCGAGAUCGGAAGAGCACACGU
B12: target 1 MT 5'PFS GGA 3'PFS AGG (mixed)
RNA 1: CACCCGUGCAAAAAUGCAGGGGUCUAAAACUGAGCGGAUAACCUCUCUAUGG
RNA 2: GGGAAUGGAUCCACAUCUACGAAUUCGGACCAUAGAGAGGUUAUCCGCUCAAGGAGAUCGGAAGAGCACACGU
B13: target 1 MT 5'PFS UAC 3'PFS CCG (mixed)
RNA 1: CACCCGUGCAAAAAUGCAGGGGUCUAAAACUGAGCGGAUAACCUCUCUAUGG
RNA 2: GGGAAUGGAUCCACAUCUACGAAUUCUACCCAUAGAGAGGUUAUCCGCUCACCGAGAUCGGAAGAGCACACGU
B14: target 1 MT 5'PFS GCC 3'PFS CCU (mixed)
RNA 1: CACCCGUGCAAAAAUGCAGGGGUCUAAAACUGAGCGGAUAACCUCUCUAUGG
RNA 2: GGGAAUGGAUCCACAUCUACGAAUUCGCCCCAUAGAGAGGUUAUCCGCUCACCUAGAUCGGAAGAGCACACGU
B15: target 1 MT 5'PFS AAA 3'PFS UCU (mixed)
RNA 1: CACCCGUGCAAAAAUGCAGGGGUCUAAAACUGAGCGGAUAACCUCUCUAUGG
RNA 2: GGGAAUGGAUCCACAUCUACGAAUUCAAACCAUAGAGAGGUUAUCCGCUCAUCUAGAUCGGAAGAGCACACGU
B16: target 1 MT 5'PFS CAC 3'PFS CCG (mixed)
RNA 1: CACCCGUGCAAAAAUGCAGGGGUCUAAAACUGAGCGGAUAACCUCUCUAUGG
RNA 2: GGGAAUGGAUCCACAUCUACGAAUUCCACCCAUAGAGAGGUUAUCCGCUCACCGAGAUCGGAAGAGCACACGU
B17: target 1 MT 5'PFS GUA 3'PFS AAA (mixed)
RNA 1: CACCCGUGCAAAAAUGCAGGGGUCUAAAACUGAGCGGAUAACCUCUCUAUGG
RNA 2: GGGAAUGGAUCCACAUCUACGAAUUCGUACCAUAGAGAGGUUAUCCGCUCAAAAAGAUCGGAAGAGCACACGU
B18: target 1 MT 5'PFS GCG 3'PFS CUA (mixed)
RNA 1: CACCCGUGCAAAAAUGCAGGGGUCUAAAACUGAGCGGAUAACCUCUCUAUGG
RNA 2: GGGAAUGGAUCCACAUCUACGAAUUCGCGCCAUAGAGAGGUUAUCCGCUCACUAAGAUCGGAAGAGCACACGU
B19: target 1 MT 5'PFS UGU 3'PFS CAA (mixed)
RNA 1: CACCCGUGCAAAAAUGCAGGGGUCUAAAACUGAGCGGAUAACCUCUCUAUGG
RNA 2: GGGAAUGGAUCCACAUCUACGAAUUCUGUCCAUAGAGAGGUUAUCCGCUCACAAAGAUCGGAAGAGCACACGU
B20: target 1 MT 5'PFS UAU 3'PFS UUC (mixed)
RNA 1: CACCCGUGCAAAAAUGCAGGGGUCUAAAACUGAGCGGAUAACCUCUCUAUGG
RNA 2: GGGAAUGGAUCCACAUCUACGAAUUCUAUCCAUAGAGAGGUUAUCCGCUCAUUCAGAUCGGAAGAGCACACGU
B21: target 1 MT 5'PFS GAC 3'PFS CCG (mixed)
RNA 1: CACCCGUGCAAAAAUGCAGGGGUCUAAAACUGAGCGGAUAACCUCUCUAUGG
RNA 2: GGGAAUGGAUCCACAUCUACGAAUUCGACCCAUAGAGAGGUUAUCCGCUCACCGAGAUCGGAAGAGCACACGU
B22: target 1 MT 5'PFS UCC 3'PFS AGA (mixed)
RNA 1: CACCCGUGCAAAAAUGCAGGGGUCUAAAACUGAGCGGAUAACCUCUCUAUGG
RNA 2: GGGAAUGGAUCCACAUCUACGAAUUCUCCCCAUAGAGAGGUUAUCCGCUCAAGAAGAUCGGAAGAGCACACGU
B23: target 1 MT 5'PFS GGU 3'PFS UCU (mixed)
RNA 1: CACCCGUGCAAAAAUGCAGGGGUCUAAAACUGAGCGGAUAACCUCUCUAUGG
RNA 2: GGGAAUGGAUCCACAUCUACGAAUUCGGUCCAUAGAGAGGUUAUCCGCUCAUCUAGAUCGGAAGAGCACACGU
B24: target 1 C6G,U8A (mixed)
RNA 1: CACCCGUGCAAAAAUGCAGGGGUCUAAAACUGAGCGGAUAACCUCUCUAUGG
RNA 2: GGGAAUGGAUCCACAUCUACGAAUUCGUACCAUAGAGAGGUUAACGGCUCACCGAGAUCGGAAGAGCACACGU
B25: target 1 MT 5'PFS GCG 3'PFS CUG (mixed)
RNA 1: CACCCGUGCAAAAAUGCAGGGGUCUAAAACUGAGCGGAUAACCUCUCUAUGG
RNA 2: GGGAAUGGAUCCACAUCUACGAAUUCGCGCCAUAGAGAGGUUAUCCGCUCACUGAGAUCGGAAGAGCACACGU
B26: target 1 MT 5'PFS ACU 3'PFS UUU (mixed)
RNA 1: CACCCGUGCAAAAAUGCAGGGGUCUAAAACUGAGCGGAUAACCUCUCUAUGG
RNA 2: GGGAAUGGAUCCACAUCUACGAAUUCACUCCAUAGAGAGGUUAUCCGCUCAUUUAGAUCGGAAGAGCACACGU
B27: target 1 insA 3' of 13,insU 3' of 7 (mixed)
RNA 1: CACCCGUGCAAAAAUGCAGGGGUCUAAAACUGAGCGGAUAACCUCUCUAUGG
RNA 2: GGGAAUGGAUCCACAUCUACGAAUUCGUACCAUAGAGAGAGUUAUCUCGCUCACCGAGAUCGGAAGAGCACACGU

Drawing on publication PMC10786891, “Massively parallel profiling of RNA-targeting CRISPR-Cas13d”, this text covers Kd for 27 molecules.

By Kd is commonly meant a measure of binding affinity in units of concentration.

The data set concerns the target T1, EsCas13d, nuclease-dead (Eubacterium siraeum, UniProt B0MS50, R295A;H300A;R849A;H854A).
T1 sequence: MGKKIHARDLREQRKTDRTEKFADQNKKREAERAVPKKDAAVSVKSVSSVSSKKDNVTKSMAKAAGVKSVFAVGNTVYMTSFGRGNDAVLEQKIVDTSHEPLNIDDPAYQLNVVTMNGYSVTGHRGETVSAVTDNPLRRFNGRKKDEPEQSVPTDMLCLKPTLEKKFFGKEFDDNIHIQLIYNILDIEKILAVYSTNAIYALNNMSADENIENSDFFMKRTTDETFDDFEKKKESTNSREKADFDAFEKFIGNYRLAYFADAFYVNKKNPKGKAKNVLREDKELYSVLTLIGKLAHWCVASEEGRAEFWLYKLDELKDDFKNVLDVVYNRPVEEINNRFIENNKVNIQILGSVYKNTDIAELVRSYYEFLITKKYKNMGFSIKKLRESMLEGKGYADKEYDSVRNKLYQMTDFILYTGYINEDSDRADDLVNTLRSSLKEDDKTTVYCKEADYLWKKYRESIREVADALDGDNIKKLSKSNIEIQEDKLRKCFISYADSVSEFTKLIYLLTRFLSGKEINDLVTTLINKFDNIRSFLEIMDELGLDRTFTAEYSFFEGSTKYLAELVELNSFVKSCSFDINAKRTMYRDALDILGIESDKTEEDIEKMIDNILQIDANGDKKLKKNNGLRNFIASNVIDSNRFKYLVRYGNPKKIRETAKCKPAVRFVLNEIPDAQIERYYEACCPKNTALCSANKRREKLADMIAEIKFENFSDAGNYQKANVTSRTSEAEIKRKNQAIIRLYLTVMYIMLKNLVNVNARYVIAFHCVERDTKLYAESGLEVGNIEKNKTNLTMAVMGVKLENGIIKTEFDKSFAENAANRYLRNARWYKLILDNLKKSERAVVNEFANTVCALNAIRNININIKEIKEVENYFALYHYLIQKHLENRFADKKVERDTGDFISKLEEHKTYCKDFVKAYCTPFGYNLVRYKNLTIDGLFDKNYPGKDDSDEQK
Nature of the data set: crRNA (strand 1, pre-loaded); Mg2+; 40 mM Tris-HCl pH 7.5, 150 mM NaCl, 6 mM MgCl2, 1 mM DTT, 0.1% Tween-20, 0.2 mg/ml BSA; 25 C; 10 min per concentration, then washed. The following applies: tags: His6-TwinStrep-SUMO cleaved; N-terminal SNAP kept (SNAP-Surface 488); label: 3' end held by stalled T7 RNA polymerase.
In the case of B1, the Kd worked out at 19.1 ± 1.2 nM.
Consider B2, for which binding was put at a Kd of 18.1 ± 3.15 nM.
On to B3, for which the Kd is roughly 43 nM.
Molecule B4 had a Kd of 46 ± 15 nM.
Next, B5: 20.4 ± 1.55 nM; B6: 52.5 ± 21 nM.
The molecule B7 returned a Kd of 31 ± 7.5 nM.
Molecule B8 showed a Kd of 15.6 ± 3.75 nM.
Next, B9: 17.8 ± 1.5 nM; B10: 7.25 ± 1.75 nM.
In the case of B11 it was 15.2 ± 3.7 nM.
On to B12, for which the Kd was determined as 31 ± 4.5 nM.
As for B13, the Kd was found to be 14.5 ± 6 nM.
Next, B14: 8.9 ± 3 nM.
B15 returned a Kd of 25 ± 5.5 nM.
Molecule B16 displayed a Kd of 9.7 ± 2.45 nM.
For B17, binding was put at a Kd of 26.4 ± 3.45 nM.
B18: the Kd turned out to be 15.7 ± 3.15 nM.
B19 showed a Kd of roughly 90 nM.
B20 displayed a Kd of 22.5 ± 6 nM.
B21 had a Kd of 13.8 ± 3 nM.
In the case of B22 it was roughly 60 nM.
B23 came in with a Kd of 34 ± 8.5 nM.
In turn, B24 showed a Kd of 13.8 ± 0.6 nM.
Regarding B25, the affinity, expressed as Kd, was 10.7 ± 1.8 nM.
Regarding B26, the Kd turned out to be 39.5 ± 15.5 nM.
In the case of B27 it was 11.2 ± 0.8 nM.
